{
  "source": "patent US20210275653A1",
  "target": "HLA-A*24 MHC class I molecule (peptide-receptive after UV-ligand exchange) (human)",
  "assay": "UV-ligand exchange, anti-b2m ELISA; grade of peptide exchange yield (>=10% = +; >=20% = ++; >=50 = +++; >=75% = ++++)",
  "data": [
    {"binder": "SYNDALLTF", "note": "[peptide … (SEQ ID No. 24)]", "values": [
      {"measurement": "peptide exchange yield", "value": "50 to 75", "unit": "%"}
    ]},
    {"binder": "QYGKDFLTL", "note": "[peptide … (SEQ ID No. 33)]", "values": [
      {"measurement": "peptide exchange yield", "value": "50 to 75", "unit": "%"}
    ]},
    {"binder": "AFSPDSHYLLF", "note": "[peptide … (SEQ ID No. 34)]", "values": [
      {"measurement": "peptide exchange yield", "value": "50 to 75", "unit": "%"}
    ]},
    {"binder": "IYTRVTYYL", "note": "[peptide … (SEQ ID No. 35)]", "values": [
      {"measurement": "peptide exchange yield", "value": "20 to 50", "unit": "%"}
    ]},
    {"binder": "RYMWINQEL", "note": "[peptide … (SEQ ID No. 36)]", "values": [
      {"measurement": "peptide exchange yield", "value": "50 to 75", "unit": "%"}
    ]},
    {"binder": "RYLQKIEEF", "note": "[peptide … (SEQ ID No. 41)]", "values": [
      {"measurement": "peptide exchange yield", "value": "50 to 75", "unit": "%"}
    ]},
    {"binder": "TYIGQGYII", "note": "[peptide … (SEQ ID No. 42)]", "values": [
      {"measurement": "peptide exchange yield", "value": "50 to 75", "unit": "%"}
    ]},
    {"binder": "AYIKNGQLF", "note": "[peptide … (SEQ ID No. 43)]", "values": [
      {"measurement": "peptide exchange yield", "value": "50 to 75", "unit": "%"}
    ]},
    {"binder": "VYNTVSEGTHF", "note": "[peptide … (SEQ ID No. 44)]", "values": [
      {"measurement": "peptide exchange yield", "value": "50 to 75", "unit": "%"}
    ]},
    {"binder": "RYFKTPRKF", "note": "[peptide … (SEQ ID No. 45)]", "values": [
      {"measurement": "peptide exchange yield", "value": "20 to 50", "unit": "%"}
    ]},
    {"binder": "SYTPVLNQF", "note": "[peptide … (SEQ ID No. 47)]", "values": [
      {"measurement": "peptide exchange yield", "value": "> 75", "unit": "%"}
    ]},
    {"binder": "IYEPYLAMF", "note": "[peptide … (SEQ ID No. 25)]", "values": [
      {"measurement": "peptide exchange yield", "value": "50 to 75", "unit": "%"}
    ]},
    {"binder": "AWAPKPYHKF", "note": "[peptide … (SEQ ID No. 48)]", "values": [
      {"measurement": "peptide exchange yield", "value": "50 to 75", "unit": "%"}
    ]},
    {"binder": "AYSEKVTEF", "note": "[peptide … (SEQ ID No. 54)]", "values": [
      {"measurement": "peptide exchange yield", "value": "50 to 75", "unit": "%"}
    ]},
    {"binder": "LYFEKGEYF", "note": "[peptide … (SEQ ID No. 55)]", "values": [
      {"measurement": "peptide exchange yield", "value": "> 75", "unit": "%"}
    ]},
    {"binder": "LFHPEDTGQVF", "note": "[peptide … (SEQ ID No. 56)]", "values": [
      {"measurement": "peptide exchange yield", "value": "20 to 50", "unit": "%"}
    ]},
    {"binder": "GYIDKVRQL", "note": "[peptide … (SEQ ID No. 58)]", "values": [
      {"measurement": "peptide exchange yield", "value": "20 to 50", "unit": "%"}
    ]},
    {"binder": "IYPDVTYAF", "note": "[peptide … (SEQ ID No. 59)]", "values": [
      {"measurement": "peptide exchange yield", "value": "50 to 75", "unit": "%"}
    ]},
    {"binder": "RYADDTFTPAF", "note": "[peptide … (SEQ ID No. 26)]", "values": [
      {"measurement": "peptide exchange yield", "value": "50 to 75", "unit": "%"}
    ]},
    {"binder": "GYLQGLVSF", "note": "[peptide … (SEQ ID No. 27)]", "values": [
      {"measurement": "peptide exchange yield", "value": "> 75", "unit": "%"}
    ]},
    {"binder": "YYAKEIHKF", "note": "[peptide … (SEQ ID No. 28)]", "values": [
      {"measurement": "peptide exchange yield", "value": "> 75", "unit": "%"}
    ]},
    {"binder": "RYGSPINTF", "note": "[peptide … (SEQ ID No. 29)]", "values": [
      {"measurement": "peptide exchange yield", "value": "50 to 75", "unit": "%"}
    ]},
    {"binder": "SYSPAHARL", "note": "[peptide … (SEQ ID No. 30)]", "values": [
      {"measurement": "peptide exchange yield", "value": "50 to 75", "unit": "%"}
    ]},
    {"binder": "AYTSPPSFF", "note": "[peptide … (SEQ ID No. 31)]", "values": [
      {"measurement": "peptide exchange yield", "value": "50 to 75", "unit": "%"}
    ]},
    {"binder": "PYQLNASLFTF", "note": "[peptide … (SEQ ID No. 32)]", "values": [
      {"measurement": "peptide exchange yield", "value": "> 75", "unit": "%"}
    ]}
  ]
}
